The target of assay [1] is PKR2 stably expressed in Chinese Hamster Ovary cells (CHO-PKR2). Kind of assay: cell-based or functional assay.
Assay [2] has as its target T1, mouse PK2 receptor (mouse, UniProt Q8K458 1-381).
T1 construct: Heptahelical G-protein-coupled receptor; also called mouse PKR2
Kind of assay: cell-based or functional assay.

Assay [3] addresses T1, mouse PK2 receptor. Kind of assay: radioligand binding assay with iodinated PK2 (FIG. 11). An excerpt:
An exemplary assay for determining binding of detectably labeled PK2, PK1 or PK2/PK1 chimera to PK2 receptor or PK1 receptor is the radioligand filter binding assay described in Li et al. Molecular Pharmacology 59:692-698 (2001)). […] A variety of other low- and high-throughput assays suitable for detecting selective binding interactions between a receptor and a ligand are known in the art. Such assays include, for example, fluorescence correlation spectroscopy (FCS) and scintillation proximity assays (SPA) reviewed in Major, J. Receptor and Signal Transduction Res. 15:595-607 (1995); and in Sterrer et al., J. Receptor and Signal Transduction Res. 17:511-520 (1997)). Binding assays can be performed in any suitable assay format including, for example, cell preparations such as whole cells or membranes that contain PK2 receptor or PK1 receptor, or substantially purified PK2 receptor polypeptide or PK1 receptor, either in solution or bound to a solid support.

T1 sequence (Q8K458 whole entry): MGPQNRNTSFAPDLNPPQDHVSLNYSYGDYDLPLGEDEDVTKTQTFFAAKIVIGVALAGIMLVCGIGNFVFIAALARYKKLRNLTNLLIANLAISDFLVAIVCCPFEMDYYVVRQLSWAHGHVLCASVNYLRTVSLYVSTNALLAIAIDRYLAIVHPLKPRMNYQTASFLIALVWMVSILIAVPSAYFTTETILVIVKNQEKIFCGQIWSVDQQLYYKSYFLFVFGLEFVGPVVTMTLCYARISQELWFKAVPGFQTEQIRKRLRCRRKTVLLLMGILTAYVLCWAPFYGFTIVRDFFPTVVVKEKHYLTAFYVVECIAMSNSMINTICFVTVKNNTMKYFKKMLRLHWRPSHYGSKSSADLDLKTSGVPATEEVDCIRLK

Turning to “purified recombinant mouse PK2 (from UniProt Q9QXU7 27-128) (ligand)”, in assay [1], the EC50, calcium mobilization was 7.3 nM and the fold stimulation of CLOCK:BMAL1-mediated transcription of the 2.8 kb PK2 promoter (luciferase reporter) was 4 fold. As for “human PK2 (from UniProt Q9HC23 28-129) (ligand)”, the calcium ion mobilization (PK2 receptor activation assay), printed as kd with mouse PK2 receptor [2] turned out to be 2.9 nM.

B1: ^125I-human PK2 (ligand)
chain: AVITGACDKDSQCGGGMCCAVSIWVKSIRICTPMGKLGDSCHPLTRKVPFFGRRMHHTCPCLPGLACLRTSFNRFICLAQK
modifications: radioiodinated with ^125I (paragraph 77 describes human PK2 radioiodinated at the core Tyr, citing Li et al. 2001)
notes: also called iodinated PK2
In the assay with mouse PK2 receptor [3], B1 yielded a Kd of around 1 nM.

The values are drawn from patent US20030235535A1 (University of California, published 2003).
